Reference: patent US20200131227A1, “POLYPEPTIDE WITH TUMOUR BINDING ACTIVITY” (RUPRECHT-KARLS-UNIVERSITÄT HEIDELBERG, priority 2017, published 2020)
Where a SMILES comes first, the peptide text is derived from it. Bridges are numbered along the chain shown (N, C = ends). The star is where a group is joined. DOTA = O=C(O)CN1CCN(CC(=O)O)CCN(CC(=O)*)CCN(CC(=O)O)CC1

Test: Biodistribution, HNO97 xenografts
Conditions: Balb/c nude, mouse, iv, 1 MBq, total radioactivity; for tissue to tissue ratio at 0.5 h / tissue to tissue ratio at 1 h / tissue to tissue ratio at 2 h / tissue to tissue ratio at 4 h / tissue to tissue ratio at 6 h: HNO97 xenografts; for tissue to tissue ratio at 0.5 h: 30 min
Description: All experiments were conducted in compliance with the German animal protection laws. Eight week old Balb c/c nude mice (Charles River Laboratories) were inoculated subcutaneously at the right shoulder with 5×10^6 HNO97 cells in BD MatriGel™ (BD Bioscience). Xenografts were grown to a tumor diameter of 10-15 mm. For small animal-PET imaging mice were anesthetized using isoflurane inhalation and injected via tail-vein with 50 MBq (2 nmol) of the ^68Ga-labeled DOTA-SFITGv6 peptide (see above) solution in 100 μL PBS. Images were recorded on an Inveon small-animal PET scanner (Siemens) using a 60 min emission scan in list mode and a 10 min transmission scan. Images were taken in 3-dimensional (3D) mode and reconstructed iteratively with a fully 3D algorithm from a 256×256 matrix for viewing transaxial, coronal, and sagittal slices of 0.9 mm thickness. Pixel size was 0.38×0.38×0.79 mm3 and transaxial resolution obtained was 0.9 mm. For blocking experiments 100 μL of a 1 mM aqueous solution of SFITGv6 was pre-administered intraperitoneally 30 min before injection of the radiolabeled peptide. Biodistribution studies were performed after administration of 100 μL of a 20 nM ^177Lu-DOTA-SFITGv6 solution (1 MBq) as an intravenous bolus injection into the tail vein of the mice. After different time points (30 min to 6 hours) three animals, respectively, were sacrificed. Peripheral blood, heart, lung, spleen, liver, kidneys, muscle, brain, intestine, and injection site (tail, after intravenous injection only) were collected and weighted. Tissue-associated radioactivity was measured in a gamma counter (Berthold LB951G) and expressed as percentage of the injected dose per gram tissue (% ID/g).
All animal experiments were conducted in compliance with the German animal protection laws. For in vivo small animal PET imaging and organ distribution studies eight-week old Balb/c nude mice (Charles River Laboratories) were inoculated subcutaneously at the right shoulder with a total of 5×10^6 tumor cells in MatriGel (BD Bioscience). Xenografts were grown until a tumor diameter of 10-15 mm was reached.
3-dimensional (3D) PET images of whole mice were captured by the Siemens Inveon PET scanner as described in Example 1. To assess the biodistribution 100 μL of a 20 nM solution (1 MBq) of ^177Lu-DOTA-SFLAP3 and ^177Lu-DOTA-SFITGv6 were administered as an intravenous bolus injection into the tail vein of mice. For each time point (30 min to 6 hours) we sacrificed a total of three animals, and subsequently collected peripheral blood, heart, lung, spleen, liver, kidneys, muscle, brain, and intestine. Tissues were weighed and respective radioactivity was measured by a gamma counter (LB951G, Berthold Technologies). Values were expressed as percentage of the injected dose radioactivity (MBq) per gram tissue (% ID/g).

[1] = in vivo, Tumor-to-Intestine ratio

Structure (SMILES): CSCC[C@@H]1NC(=O)[C@H](CC(C)C)NC(=O)[C@H](CC(=O)O)NC(=O)CNC(=O)[C@H](CCCNC(=N)N)NC(=O)[C@H](Cc2ccccc2)NC(=O)[C@H]([C@@H](C)O)NC(=O)[C@@H](NC(=O)[C@H](CCCNC(=N)N)NC(=O)CNC(=O)CN2CCN(CC(=O)O)CCN(CC(=O)O)CCN(CC(=O)O)CC2)CSSC[C@@H](C(=O)N[C@@H](Cc2ccc(O)cc2)C(=O)N2CCC[C@H]2C(=O)N[C@@H](CC(=O)O)C(=O)O)NC(=O)[C@H](CC(C)C)NC(=O)[C@H](CCC(N)=O)NC1=O [^177Lu-DOTA-SFITGv6, metal not drawn] ({DOTA}-GRCTFRGDLMQLCYPD-OH; disulfide 3-13)
- tissue to tissue ratio at 0.5 h (in vivo, Tumor-to-Blood ratio): 6.89 ± 1
- tissue to tissue ratio at 1 h (in vivo, Tumor-to-Blood ratio): 12.9 ± 0.83
- tissue to tissue ratio at 2 h (in vivo, Tumor-to-Blood ratio): 59.5 ± 1.04
- tissue to tissue ratio at 4 h (in vivo, Tumor-to-Blood ratio): 98.86 ± 0.35
- tissue to tissue ratio at 6 h (in vivo, Tumor-to-Blood ratio): 99.15 ± 0.51
- tissue to tissue ratio at 0.5 h (in vivo, Tumor-to-Brain ratio): 190.9 ± 1
- tissue to tissue ratio at 1 h (in vivo, Tumor-to-Brain ratio): 198.6 ± 0.82
- tissue to tissue ratio at 2 h (in vivo, Tumor-to-Brain ratio): 250.3 ± 1.04
- tissue to tissue ratio at 4 h (in vivo, Tumor-to-Brain ratio): 372.6 ± 0.35
- tissue to tissue ratio at 6 h (in vivo, Tumor-to-Brain ratio): 424.9 ± 0.51
- tissue to tissue ratio at 0.5 h (in vivo, Tumor-to-Heart ratio): 15.1 ± 1
- tissue to tissue ratio at 1 h (in vivo, Tumor-to-Heart ratio): 21.9 ± 0.82
- tissue to tissue ratio at 2 h (in vivo, Tumor-to-Heart ratio): 48.8 ± 1.04
- tissue to tissue ratio at 4 h (in vivo, Tumor-to-Heart ratio): 67.5 ± 0.36
- tissue to tissue ratio at 6 h (in vivo, Tumor-to-Heart ratio): 78.99 ± 0.51
- tissue to tissue ratio at 0.5 h [1]: 4.59 ± 1
- tissue to tissue ratio at 1 h [1]: 3.42 ± 0.83
- tissue to tissue ratio at 2 h [1]: 9.44 ± 1.05
- tissue to tissue ratio at 4 h [1]: 10.7 ± 0.36
- tissue to tissue ratio at 6 h [1]: 7.82 ± 0.51
- tissue to tissue ratio at 0.5 h (in vivo, Tumor-to-Kidney ratio): 0.15 ± 3.73
- tissue to tissue ratio at 1 h (in vivo, Tumor-to-Kidney ratio): 0.12 ± 2.21
- tissue to tissue ratio at 2 h (in vivo, Tumor-to-Kidney ratio): 0.1 ± 3.11
- tissue to tissue ratio at 4 h (in vivo, Tumor-to-Kidney ratio): 0.07 ± 2.69
- tissue to tissue ratio at 6 h (in vivo, Tumor-to-Kidney ratio): 0.06 ± 2.58
- tissue to tissue ratio at 0.5 h (in vivo, Tumor-to-Liver ratio): 20.8 ± 1
- tissue to tissue ratio at 1 h (in vivo, Tumor-to-Liver ratio): 21.5 ± 0.82
- tissue to tissue ratio at 2 h (in vivo, Tumor-to-Liver ratio): 25.8 ± 1.04
- tissue to tissue ratio at 4 h (in vivo, Tumor-to-Liver ratio): 32.2 ± 0.36
- tissue to tissue ratio at 6 h (in vivo, Tumor-to-Liver ratio): 17.6 ± 0.51
- tissue to tissue ratio at 0.5 h (in vivo, Tumor-to-Lung ratio): 2.29 ± 1.14
- tissue to tissue ratio at 1 h (in vivo, Tumor-to-Lung ratio): 3.81 ± 0.82
- tissue to tissue ratio at 2 h (in vivo, Tumor-to-Lung ratio): 9.13 ± 1.05
- tissue to tissue ratio at 4 h (in vivo, Tumor-to-Lung ratio): 10.3 ± 0.36
- tissue to tissue ratio at 6 h (in vivo, Tumor-to-Lung ratio): 9.73 ± 0.51
- tissue to tissue ratio at 0.5 h (in vivo, Tumor-to-Muscle ratio): 13.9 ± 1
- tissue to tissue ratio at 1 h (in vivo, Tumor-to-Muscle ratio): 16.1 ± 0.83
- tissue to tissue ratio at 2 h (in vivo, Tumor-to-Muscle ratio): 22.7 ± 1.04
- tissue to tissue ratio at 4 h (in vivo, Tumor-to-Muscle ratio): 32.3 ± 0.36
- tissue to tissue ratio at 6 h (in vivo, Tumor-to-Muscle ratio): 21.9 ± 0.51
- tissue to tissue ratio at 0.5 h (in vivo, Tumor-to-Spleen ratio): 21.1 ± 1
- tissue to tissue ratio at 1 h (in vivo, Tumor-to-Spleen ratio): 27.4 ± 0.82
- tissue to tissue ratio at 2 h (in vivo, Tumor-to-Spleen ratio): 38.4 ± 1.04
- tissue to tissue ratio at 4 h (in vivo, Tumor-to-Spleen ratio): 51.78 ± 0.36
- tissue to tissue ratio at 6 h (in vivo, Tumor-to-Spleen ratio): 35.4 ± 0.51
- tissue uptake (in vivo, uptake in the kidneys, hardly any clearance): ~42 %ID/g
- tissue uptake at 0.5 h: 6.22 ± 1 %ID/g
- tissue uptake at 6 h: 2.43 ± 0.51 %ID/g
